Results reported in the supplement of paper PMC6757056.
± gives the standard deviation of the averaged measurements.

B1: library; a variant is named by its letters at N, in order (parent)
chain: GCUGUCACCGGUGUAUUACCCUAGUGGUCGACCGGUCUGAUGAGUCUNNNNNNAGACGAAACAGC

Assays:
[1] = variants of: B1; experiment: normalized RNA/DNA level with ligand (relative to sTRSVctl = 100) (log10 (% of sTRSVctl)); ligand: hypoxanthine (xanthine aptamer); higher = less ribozyme self-cleavage, higher mRNA level; conditions: ligand concentration (+) RNA-Seq: 5 mM, HEK293T, reporter: mCherry (pCS4076), ligand present: yes
Method in brief: (§1)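 For each 6-well well, 4 µg of library plasmid encoding mCherry-linked ribozyme switches, or eGFP-linked ones in some ligand experiments, was transfected into HEK293T. Any ligand was added 1 h before transfection, and RNA was extracted with EDTA 72 h after it, then reverse-transcribed, amplified, barcoded and sequenced. RNA level was obtained by dividing RNA reads by DNA reads, normalizing to a spiked-in non-cleaving sequence or to the top sequences, then scaling and log-transforming. The top set was 25 sequences, scaling was ×100 with log10, and ≥100 DNA reads were required.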

[2] = variants of: B1; experiment: normalized RNA/DNA level without ligand (relative to sTRSVctl = 100) (log10 (% of sTRSVctl)); ligand: hypoxanthine (xanthine aptamer); higher = less ribozyme self-cleavage, higher mRNA level; conditions: HEK293T, reporter: mCherry (pCS4076), ligand present: no
Method in brief: as §1

Variant	normalized RNA/DNA level with ligand (log10) [1]	normalized RNA/DNA level without ligand (log10) [2]
CGAAUU	1.95 ± 0.046	1.807 ± 0.00086
AUCCUU	1.98 ± 0.027	1.91 ± 0.055
AGUGCG	1.84 ± 0.02	1.365 ± 0.0051
AUAUCA	1.936 ± 0.0032	1.81 ± 0.021
GUAGCG	1.87 ± 0.02	1.535 ± 0.0049
CUGGUG	1.94 ± 0.059	1.76 ± 0.022
CUGGUA	1.93 ± 0.022	1.773 ± 0.01
CAACAA	1.88 ± 0.03	1.701 ± 0.015
AGUGGU	1.898 ± 0.015	1.55 ± 0.056
GGUGGG	1.9 ± 0.028	1.47 ± 0.056
CAGAAG	1.9 ± 0.028	1.59 ± 0.021
GCAACC	1.93 ± 0.052	1.82 ± 0.03
GGCUAC	1.933 ± 0.0082	1.79 ± 0.093
GGCUAA	1.94 ± 0.046	1.86 ± 0.017
CCGCGA	1.88 ± 0.018	1.62 ± 0.016
CAGGUG	1.9 ± 0.025	1.77 ± 0.03
CCAGUU	2.01 ± 0.029	1.928 ± 0.0095
CCAGUG	1.93 ± 0.051	1.69 ± 0.077
UAUUGC	1.94 ± 0.038	1.841 ± 0.0096

Variant	normalized RNA/DNA level with ligand (log10) [1]	normalized RNA/DNA level without ligand (log10) [2]
CGAGCG	1.94 ± 0.057	1.8 ± 0.02
CGAGCU	1.968 ± 0.0032	1.86 ± 0.052
GUUGUC	1.943 ± 0.0065	1.9 ± 0.052
UGCCCC	2.011 ± 0.0086	1.9 ± 0.024
CGAAGC	1.948 ± 0.0063	1.811 ± 0.012
CGGUUU	1.935 ± 0.017	1.791 ± 0.015
UCAAGC	1.964 ± 0.019	1.87 ± 0.053
CUCCCU	1.94 ± 0.039	1.97 ± 0.043
AUGGGC	1.94 ± 0.064	1.81 ± 0.022
AUUACC	1.926 ± 0.013	1.94 ± 0.038
ACGUUC	1.94 ± 0.039	1.79 ± 0.024
GCUUAC	1.918 ± 0.0079	1.7 ± 0.11
CUGUUG	1.964 ± 0.0068	1.8708 ± 0.00036
UUGUCG	1.99 ± 0.025	1.947 ± 0.0075
CACACG	1.96 ± 0.032	1.861 ± 0.017
AUGUUC	1.94 ± 0.14	1.85 ± 0.034
UAUCAG	1.87 ± 0.019	1.7 ± 0.036
CUUGUC	2 ± 0.037	1.98 ± 0.04
CUUGUA	1.94 ± 0.062	1.83 ± 0.045

Variant	normalized RNA/DNA level with ligand (log10) [1]	normalized RNA/DNA level without ligand (log10) [2]
CUUGUG	1.96 ± 0.056	1.883 ± 0.015
CAAAUG	1.913 ± 0.011	1.82 ± 0.041
UUCGCU	1.983 ± 0.015	1.87 ± 0.049
UGGCCC	2.02 ± 0.022	1.99 ± 0.044
CCUGCC	2.04 ± 0.026	2.01 ± 0.023
GCCUCU	2.011 ± 0.019	1.96 ± 0.02
CUCCGU	1.95 ± 0.051	1.88 ± 0.019
CUUAGU	1.936 ± 0.016	1.906 ± 0.0051
AUCGGA	1.94 ± 0.044	1.74 ± 0.061
CUAUCC	1.93 ± 0.062	1.92 ± 0.049
UUUACG	1.92 ± 0.035	1.76 ± 0.048
GCUGUA	1.9622 ± 0.0015	1.901 ± 0.014
UCUCCG	1.85 ± 0.036	1.43 ± 0.1
CAAGGA	1.912 ± 0.012	1.79 ± 0.044
UCGCUU	1.984 ± 0.0024	1.7 ± 0.035
CGAGGC	1.97 ± 0.024	1.89 ± 0.0058
CGCUCA	2.01 ± 0.059	1.905 ± 0.012
AGCAUC	2.07 ± 0.038	1.96 ± 0.025
CUCCAA	1.91 ± 0.047	1.869 ± 0.01
